The results in this text go back to the nanobody polyreactivity screen of Harvey et al. (2022).

This data set is described as follows: yeast display, Sf9 membrane polyspecificity reagent, FACS + sequencing; frameworks hold sequencing errors. The method, boiled down: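 Genes from sorted yeast were amplified by colony PCR, read by MiSeq 2 × 250 sequencing and filtered on CDR length. These cells carried a synthetic nanobody library in Saccharomyces cerevisiae BJ5465 and were sorted by FACS into low and high (top ~1%) gates on anti-HA and streptavidin fluorescence. Polyreactivity is labelled according to the gate of origin.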
In the case of “QVQLVESGGGLVQAGGSLRLSCAASGIIFYLNAMGWYRLAPGKERELVAAISSSDGTTYYADSVKGRFTISRDNAKNTVYLQMNSLKPEDTAGYYCAAGQDWGYLDYDWVSYLYDYWGQGTQVTVSS”, the “polyreactivity (PSR sort gate)” value is reported as “low polyreactivity”.

Take “QVQLVESGGGLVQAGGSLRLSCAASGIIFYLYAMGWYRQAPGKERELVAAITLSGSTTYYADSVKGRFTISRDNAKNTVYLQMNSLKPEDTAVYYCNADTPVRSDYWGQGTQVTVSS”: the “polyreactivity (PSR sort gate)” value was “low polyreactivity”.

As to “QVQLVESGGGLVQAGGSLRLSCAASGIIFYLYTKGWYRQAPGKERELVAAITRGGSTYYADSVKGRFTISRDNAKKTVYLQMNSLKPEDTAVYYCAAKHGPGYRRWYDYWGQGTQVTVSS”, the “polyreactivity (PSR sort gate)” value is “high polyreactivity”.

Regarding “QVQLVESGGGLVQAGGSLRLSCAASGIIFYRYAMGWYRQAPGKERELVAAISTRGGSTYYADSVKGRFTISRDNAKYTVYLHMNSLKPEDTAVYYCAAEWLRYLHDYWGQGTQVTVSS”, the “polyreactivity (PSR sort gate)” value was “high polyreactivity”.

Take “QVQLVESGGGLVQAGGSLRLSCAASGIIFYRYAMGWYRQAPGKERELVAAITWRGGSPYYADSVKGRFTISRDNAKNTVYLQMNSLKPEDTAVYYCAAESYWTATYTFDYWGQGTQVTVSS”: the “polyreactivity (PSR sort gate)” value is given as “high polyreactivity”.

Regarding “QVQLVESGGGLVQAGGSLRLSCAASGIIFYVNAMGWYRQAPGKERDLVAAITFGGDSTYYADSVKGRFTISRDNAMNTVSVQMNSLKPEDTAVYYCATDGDPAYPEMEYLGQGTQVTVSS”, the “polyreactivity (PSR sort gate)” value is given as “low polyreactivity”.

With “QVQLVESGGGLVQAGGSLRLSCAASGIIFYVNAMGWYRQAPGKERELVAVISRRGGSTNYADSVKGRFTISRDNAKNTVYLQMNSLKPEDTAVYYCAAGYRTAYRGSSYYYWGQGTQVTVSS”, the “polyreactivity (PSR sort gate)” value is recorded as “high polyreactivity”.

Take “QVQLVESGGGLVQAGGSLRLSCAASGIIFYYNALGWYRQAPGKERELVAAIDDRGDSTYYADSVKGRFTISRDNAKNTVYLQMNSLKPEDTAVYYCAADRYVQLLGYFFEYDYWGQGTQVTVSS”: the “polyreactivity (PSR sort gate)” value is “low polyreactivity”.

In the case of “QVQLVESGGGLVQAGGSLRLSCAASGIIFYYYAMGWYRQPPGKERELVAAISWSGDGTYYADSVKGRFTISRDNPKNTVYLQMNSLKPEDTAVYYCAALNDGFSGYDYLDEYTDYGYWGQGTQVTVSS”, the “polyreactivity (PSR sort gate)” value was “low polyreactivity”.

On to “QVQLVESGGGLVQAGGSLRLSCAASGIIIGNNAMGWYRQAPGKERELVAPISRRGGSTYYADSVKGRFTISRDNAKNTVYLQMNSLKPEYTAVYYCAADIYRYNSYDYWGQGTQVTVSS”, for which the “polyreactivity (PSR sort gate)” value is listed as “low polyreactivity”.

Consider “QVQLVESGGGLVQAGGSLRLSCAASGIIIGYYAMGWYRQAPGKERELVAAISSIGGSTYYADSVKGRFTISRDNAKNTVYLQMNSLKPEDTAVYYCAAKYYGRYYRYLGSSFDYWGQGTQVTVSS”, for which the “polyreactivity (PSR sort gate)” value is “high polyreactivity”.

Consider “QVQLVESGGGLVQAGGSLRLSCAASGIIINTYLMGWYRQAPGKERELVAAISRRGGSTYYADSVKGRFTISRDNAKITVYLQMNSLKPEDTAFYYCAADVLYQQAGTYYWGQGTQVNVSS”, for which the “polyreactivity (PSR sort gate)” value was “high polyreactivity”.

As to “QVQLVESGGGLVQAGGSLRLSCAASGIIIRYYGMGWYRQAPGKERELVARIRWTGGSTYYADSVKGRFTISRDNAKNTVYLQMNSLKPEDTAVYYCAADIWQYSRIANYHPYDYWGQGTQVTVSS”, the “polyreactivity (PSR sort gate)” value is “low polyreactivity”.

“QVQLVESGGGLVQAGGSLRLSCAASGIIISYYTMGWYRQAPGKERELVAAITGSGGSTYYADSVKGRFTISRDNAKNTVYLQMNSLKPEDTAVYYCAADPSLRQYAYFDYYYWGQGTQVTVSS”: the “polyreactivity (PSR sort gate)” value is “low polyreactivity”.

As for “QVQLVESGGGLVQAGGSLRLSCAASGIILAFNAMGWYRQAPGKEREFVASISQGGSSTYYADSVKGRFTISRDYAKNTVYLQMNSLKPEVTAVYFCAARSSRVRSPYQRYYYWGQGTQVTVSS”, the “polyreactivity (PSR sort gate)” value was “high polyreactivity”.

On to “QVQLVESGGGLVQAGGSLRLSCAASGIILDPNAMGWYRQAPGKEREMVAGITRSGVSTYYADSVKGRFTISRDNAKNTVYLQMNSLKPEDTAVYYCANDRIYGSKGEDDDYWGQGTQVSVSS”, for which the “polyreactivity (PSR sort gate)” value is “low polyreactivity”.

With “QVQLVESGGGLVQAGGSLRLSCAASGIILFYAMGWYRQAPGKERELVAAISSGGGTSYADSVKGRFTISRDNAKNTVYLHMNSLKPEDTAVYYCNADGYSYFWYPSYARGHDYWGQGTQVTVSS”, the “polyreactivity (PSR sort gate)” value is listed as “low polyreactivity”.

Turning to “QVQLVESGGGLVQAGGSLRLSCAASGIILGKNAMGWYRQAPGNERELVASITSGAGITYYADSVKGRFTISRDNAKNTVNLQINSLKPEDTAVYYCAADWSGDYFTDGYWGQGPQVTVSS”, the “polyreactivity (PSR sort gate)” value is reported as “low polyreactivity”.

With “QVQLVESGGGLVQAGGSLRLSCAASGIILGYYAMGWYRQAPGKERELVAAITRSGGRTYYADSVKGRFTISRDNAKNTVYLQMNSLKPEDTGVYYCAADDPYTPQYPDVTYDYWGQGTQVTVSS”, the “polyreactivity (PSR sort gate)” value was “high polyreactivity”.

As for “QVQLVESGGGLVQAGGSLRLSCAASGIILPWNAMGWYRQAPGKERELVAAISWSGTSTYYADSVQGRFTISRDNAKNTVYLQMNSLKPEDTAVYYCAAAYWWSWRYDYWGQGTQVTVSS”, the “polyreactivity (PSR sort gate)” value is listed as “low polyreactivity”.

Turning to “QVQLVESGGGLVQAGGSLRLSCAASGIILQSYTMGWYRQAPGKERELVAALTKSGGRTYYADSVKGRFTISRDNAKNTVYLQMNSLKPEDTAVYYCAAPLSYSYDYSGQGTQVTVSS”, the “polyreactivity (PSR sort gate)” value is given as “high polyreactivity”.

For “QVQLVESGGGLVQAGGSLRLSCAASGIILRYYAMGWYRQAPGKEREMVAAISYSGGRTYYADSVKGRFTISRDNAKNTVYLQMNSLKPEDTAVYYCAADYGYRIIASYDYWGQGTQVTVSS”, the “polyreactivity (PSR sort gate)” value was “high polyreactivity”.

“QVQLVESGGGLVQAGGSLRLSCAASGIILSPYTMGWYRQAPGKERELVAGISRSGGTTYYADSVKGRFTISRDNAKNTVYLQMNSLKPEDTAVYYCAAGLIYGYSGYDSWGQGTQVTVSS”: the “polyreactivity (PSR sort gate)” value is reported as “low polyreactivity”.

On to “QVQLVESGGGLVQAGGSLRLSCAASGIILTQNAMGWYRQEPGKVRELVAAITESGARTYYADSVMGRFTISRDTAQNTVYLQMNSLKPEATAVYYCATEGPWGYDYWGIGTQVTVSS”, for which the “polyreactivity (PSR sort gate)” value is listed as “low polyreactivity”.

For “QVQLVESGGGLVQAGGSLRLSCAASGIILYRNGMGWYRQAPGKERELVAVISRRGGTYYADSVKGRFTISRDNAKITVYLQLNSLKPEDTAVYYCAAYLSPIGNFRGGGDYWGQGTQVTVSS”, the “polyreactivity (PSR sort gate)” value is recorded as “high polyreactivity”.

Regarding “QVQLVESGGGLVQAGGSLRLSCAASGIISAGYAMGWYRQAPGKERELVAAISTSGTSTYYADSVKGRFTISRDNAKNTVYLQMNSLKPEDTAVYYCAYTYYYGVGYYYWGQGTQVTVSS”, the “polyreactivity (PSR sort gate)” value is given as “low polyreactivity”.

With “QVQLVESGGGLVQAGGSLRLSCAASGIISIFNVMGWYRQAPGKERELVASITGRGGSTFYADSVKGRFTISRDNAKNTDYLQLNSLIPEDTAVYYCATDTGYTYPVTGLYDYWGQGTQVTVSS”, the “polyreactivity (PSR sort gate)” value is listed as “low polyreactivity”.

Regarding “QVQLVESGGGLVQAGGSLRLSCAASGIISRYYAMGWYRQAPGKERELVASISSGVGTNYADSVKGRFTISRDNAKNTVYLQMNSLKPEDTAVYYCAARFRYYRHYYWGQGSQVTVSS”, the “polyreactivity (PSR sort gate)” value was “high polyreactivity”.

Consider “QVQLVESGGGLVQAGGSLRLSCAASGIISSVYAMGWYRQAPGKERELVAAISGSGGSTYYADSVKGRFTISRDNAKNTVYLQMNSLKPEDTAVYYCAKGYQYQGNSYGYWGQGTQVTVSS”, for which the “polyreactivity (PSR sort gate)” value is recorded as “low polyreactivity”.

As to “QVQLVESGGGLVQAGGSLRLSCAASGIISTYYVMGWYRQAPGKERELVAAITGGDTSTYYADSVKGRFTISRDNAKKTVYLQMNSLKPEDTADYYCAKEYYYARGARYDYWGQGTQVTVSS”, the “polyreactivity (PSR sort gate)” value was “low polyreactivity”.

Turning to “QVQLVESGGGLVQAGGSLRLSCAASGIISTYYVMGWYRQAPGKERELVAAITGGGTYYADSVKGRFTISRDNAKNTVYLQMNSLKPEDTAVYYCAVDGTYAYGYSRDYDYWGQGTQVTVSS”, the “polyreactivity (PSR sort gate)” value is reported as “low polyreactivity”.

In the case of “QVQLVESGGGLVQAGGSLRLSCAASGIISVRNTMGWYRQAPGKERELVAAISGSGGSTHYADSVKGRFTISRDNAKNTVYLQMNSLKTEDTEVYYCAVRSYGYWHFGYWGQGTQVTVSS”, the “polyreactivity (PSR sort gate)” value is “high polyreactivity”.

Turning to “QVQLVESGGGLVQAGGSLRLSCAASGIIYWDYAMGWYRQAPGKEREYVAAINTSGGTTTYADSVKGRFTISRDNAKNTVYFQMNSLKREDTAVYYCAADPWVYYSYAYYSWGQGTQVTVSS”, the “polyreactivity (PSR sort gate)” value is “low polyreactivity”.

As for “QVQLVESGGGLVQAGGSLRLSCAASGIIYYTYAMGWYRQAPGKERELVATISWDVDSTNYADSVKGRFTISRDNAKNTVYLQMNSLKPEDTALYYCAGDYTVDSYWYWVDYYEYGYWGQGTQVTVSS”, the “polyreactivity (PSR sort gate)” value is recorded as “high polyreactivity”.

Take “QVQLVESGGGLVQAGGSLRLSCAASGIMFFLYAMGWYRQAPGKERELVAAISSGGSTYYAVSVKGRFTISRDNAKNTVYLQMNSLKPEDTAVYYCNARYWPFRYYYWGQGTQVTVSS”: the “polyreactivity (PSR sort gate)” value is listed as “high polyreactivity”.

With “QVQLVESGGGLVQAGGSLRLSCAASGIMFTSNTMGSYRQAPGKEREFVASINWNGSSTYADSVKGRFTISRDNAKNTDYLQMNSLKPEDTAVYYCNADYNRNSVQFSLYDYWGQGTQVTVSS”, the “polyreactivity (PSR sort gate)” value is listed as “low polyreactivity”.

For the sequence “QVQLVESGGGLVQAGGSLRLSCAASGINFYDYAMGWYRQAPGKEREFVAAISWDGVSTYYADSVKGRFTISRDNAKNTVYLQMNSLKPEDTAVYYCAARAVTDDYYEFDYWGQGTQVTVSS”, the “polyreactivity (PSR sort gate)” value is “low polyreactivity”.

With “QVQLVESGGGLVQAGGSLRLSCAASGINFYRYAMGWYRQAPGKERELVAAITGSGGNTYYADSVKGRFTISRDNAKNTVYLQMNSLKPEDTAVYYCAKRDYRHQYNYWGQGTQVTVSS”, the “polyreactivity (PSR sort gate)” value is given as “high polyreactivity”.

Turning to “QVQLVESGGGLVQAGGSLRLSCAASGINLFYYAMGWYIQAPGKETDFVAAISWSGGSTYYADSVKGRFTISRDNAQNTVYLQMNSLKPEDTALYYCAAKWYSYRWTQFDYWGQGTQVTVSS”, the “polyreactivity (PSR sort gate)” value was “high polyreactivity”.

For “QVQLVESGGGLVQAGGSLRLSCAASGISFSYYAMGWSRQAPGKERELVAAISSSGSTNYADSVKGRFTISRDNAKNTVYLQMNSLKPEDTAVYYCNAGYGRRVYVYSFKLRYNYWGQGTQVTVSS”, the “polyreactivity (PSR sort gate)” value is reported as “high polyreactivity”.
